Test results: patent US20230357447A1 (JANUX THERAPEUTICS, published 2023)
Where two headings read alike, the source gives them in different places. Ends that are not written are not given here.

B1: Peptide-32 (peptide)
peptide: MDWCPIHLWHVCFN
modifications: cysteine pairing not given here; also: biotinylated, site not given here
notes: Synthetic biotinylated peptide loaded on streptavidin biosensors
B2: Peptide-40 (peptide)
peptide: MDWCPRDLWSECFF
modifications: cysteine pairing not given here; also: biotinylated, site not given here
notes: as for B1
B3: Peptide-37 (peptide)
peptide: MDWCPRDLWDLCFA
modifications: cysteine pairing not given here; also: biotinylated, site not given here
notes: as for B1
B4: Peptide-31 (peptide)
peptide: MDWCPIDLWNECFF
modifications: cysteine pairing not given here; also: biotinylated, site not given here
notes: as for B1
B5: Peptide-35 (peptide)
peptide: MDWCPLHMWHECFS
modifications: cysteine pairing not given here; also: biotinylated, site not given here
notes: as for B1
B6: Peptide-39 (peptide)
peptide: MDWCPRDLWHLCFS
modifications: cysteine pairing not given here; also: biotinylated, site not given here
notes: as for B1
B7: Peptide-33 (peptide)
peptide: MDWCPIYLWSECFN
modifications: cysteine pairing not given here; also: biotinylated, site not given here
notes: as for B1
B8: Peptide-36 (peptide)
peptide: MDWCPLYLWNECFN
modifications: cysteine pairing not given here; also: biotinylated, site not given here
notes: as for B1
B9: Peptide-38 (peptide)
peptide: MDWCPRDLWHECFA
modifications: cysteine pairing not given here; also: biotinylated, site not given here
notes: as for B1
B10: Peptide-47 (peptide)
peptide: MDWCPRSLWHECFA
modifications: cysteine pairing not given here; also: biotinylated, site not given here
notes: as for B1
B11: Peptide-34 (peptide)
peptide: MNWCPKDIWYLCFN
modifications: cysteine pairing not given here; also: biotinylated, site not given here
notes: as for B1

Tests used:
[1] = target: Anti-CD28 scFv (VH-linker 1-VL); assay: phage ELISA: biotinylated anti-CD28 scFv on neutravidin plate, clonal phage supernatant, anti-M13-HRP;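 note: before phage addition, wells were preincubated either with soluble CD28 protein in blocking buffer or with blocking buffer only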
[2] = target: Anti-CD28 scFv (VH-linker 1-VL); assay: phage ELISA: biotinylated anti-CD28 scFv on neutravidin plate, clonal phage supernatant, anti-M13-HRP; wells pre-incubated with soluble CD28 (competitor);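 for Phage binding ELISA CD28 scFv signal in presence of CD28: wells pretreated with soluble CD28 protein in blocking buffer before phage addition, no wash in between, reference wells got blocking buffer only, bound phage detected after washing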
[3] = target: T1, Ab-12, anti-PD-L1xCD28 non-masked antibody in Vh format; assay: competition ELISA: peptide titrated against 5 nM Ab-12; binding of Ab-12 to captured biotinylated CD28 antigen is read
T1 construct: also called PDL1xCD28 non-masked (Vh)

[4] = target: T1, Ab-12, anti-PD-L1xCD28 non-masked …; assay: as above; remark: listed apart in the source

Binder | Phage binding ELISA CD28 scFv signal [1] | Phage binding ELISA CD28 scFv signal in presence of CD28 [2] | IC50 [3] [nM] | IC50 [4] [nM]
MVDCPLISFDECLA (Clonal phage from the Peptide-9 library) [Phage-449] | 0.07 | 0.076 | – | –
MDWCPRDRWADCFN (Clonal phage from the Peptide-9 library) [Phage-436] | 1.35 | 0.08 | – | –
MDWCPRDRWDDCFF (Clonal phage from the Peptide-9 library) [Phage-441] | 0.899 | 0.183 | – | –
MDWCPRDRWDDCFN (Clonal phage from the Peptide-9 library) [Phage-446] | 0.45 | 0.077 | – | –
MDWCPVDRWADCFN (Clonal phage from the Peptide-9 library) [Phage-437] | 1.16 | 0.315 | – | –
MDWCPRDRWVDCFN (Clonal phage from the Peptide-9 library) [Phage-440] | 0.911 | 0.132 | – | –
B1 | – | – | 970 | –
MDWCPRFWWHECYA (Clonal phage from the Peptide-9 library) [Phage-451] | 2.4 | 0.503 | – | –
B2 | – | – | – | 250
MDWCPRDRWVDCYA (Clonal phage from the Peptide-9 library) [Phage-435] | 1.48 | 0.403 | – | –
B3 | – | – | 1110 | –
B4 | – | – | 1770 | –
MDWCPRDRWDVCYY (Clonal phage from the Peptide-9 library) [Phage-447] | 0.074 | 0.073 | – | –
B5 | – | – | 1270 | –
VILCPTTMWNRCFH (Clonal phage from the Peptide-9 library) [Phage-427] | 0.072 | 0.084 | – | –
B6 | – | – | 480 | –
B7 | – | – | 160 | –
MAWCPADQWHECFN (Clonal phage from the Peptide-9 library) [Phage-431] | 1.84 | 0.456 | – | –

Binder | Phage binding ELISA CD28 scFv signal [1] | Phage binding ELISA CD28 scFv signal in presence of CD28 [2] | IC50 [3] [nM] | IC50 [4] [nM]
EDWCPTDVWPYCFS (Clonal phage from the Peptide-9 library) [Phage-450] | 0.711 | 0.157 | – | –
B8 | – | – | 400 | –
IVWCPTTQWNRCAT (Clonal phage from the Peptide-9 library) [Phage-434] | 0.067 | 0.083 | – | –
IDWCPIIQGLPCFA (Clonal phage from the Peptide-9 library) [Phage-432] | 0.368 | 0.065 | – | –
MDWCPRDRWDVCFA (Clonal phage from the Peptide-9 library) [Phage-439] | 0.924 | 0.096 | – | –
MDWCPMSRWAFCFD (Clonal phage from the Peptide-9 library) [Phage-438] | 1 | 0.115 | – | –
B9 | – | – | 350 | –
B10 | – | – | – | 450
MNWCPSTMWNRCLT (Clonal phage from the Peptide-9 library) [Phage-428] | 0.065 | 0.07 | – | –
IYWCPIDRWNDCYN (Clonal phage from the Peptide-9 library) [Phage-442] | 0.867 | 0.164 | – | –
B11 | – | – | 1410 | –
MDWCPRARWHDCFF (Clonal phage from the Peptide-9 library) [Phage-445] | 0.497 | 0.138 | – | –
MDWCPRDWWHMCFN (Clonal phage from the Peptide-9 library) [Phage-452] | 2.12 | 0.243 | – | –
MDWCPMTRWNDCYF (Clonal phage from the Peptide-9 library) [Phage-443] | 0.671 | 0.078 | – | –
MAWCPWAQFDECLA (Clonal phage from the Peptide-9 library) [Phage-433] | 0.071 | 0.078 | – | –
MAWCPWASFDECLA (Clonal phage from the Peptide-9 library) [Phage-448] | 0.089 | 0.109 | – | –
MDWCPSDYWYVCFA (Clonal phage from the Peptide-9 library) [Phage-453] | 0.707 | 0.08 | – | –
